Targets include FGFR3(h) (human, UniProt P22607 397-806); Yes(h) (human, UniProt P07947 1-543); FGFR1(V561M)(h) (human, UniProt P11362 456-765, limits assumed); WNK3(h) (human, UniProt Q9BYP7 1-434, limits assumed); LOK(h) (human, UniProt O94804 1-348, limits assumed); PTK5(h) (human, UniProt P42685 1-505, limits assumed); Fyn(h) (human, UniProt P06241 1-537).
Common to all, as to assay: cell-based or functional assay
For another assay, the target named is T1, Haspin(h) (human, UniProt Q8TF76 471-798, limits assumed).
T1 sequence (looked up): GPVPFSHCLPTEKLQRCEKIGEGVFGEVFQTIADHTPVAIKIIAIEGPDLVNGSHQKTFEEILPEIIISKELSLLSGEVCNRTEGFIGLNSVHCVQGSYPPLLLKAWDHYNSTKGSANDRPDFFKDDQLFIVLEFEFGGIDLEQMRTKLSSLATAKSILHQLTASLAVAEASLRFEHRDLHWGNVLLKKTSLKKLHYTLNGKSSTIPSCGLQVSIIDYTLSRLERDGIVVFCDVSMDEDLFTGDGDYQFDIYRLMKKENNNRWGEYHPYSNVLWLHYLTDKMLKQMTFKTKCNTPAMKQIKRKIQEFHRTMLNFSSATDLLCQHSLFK

A further assay concerns the target T2, IKKβ(h) (human, UniProt O14920 1-756).
T2 sequence (looked up): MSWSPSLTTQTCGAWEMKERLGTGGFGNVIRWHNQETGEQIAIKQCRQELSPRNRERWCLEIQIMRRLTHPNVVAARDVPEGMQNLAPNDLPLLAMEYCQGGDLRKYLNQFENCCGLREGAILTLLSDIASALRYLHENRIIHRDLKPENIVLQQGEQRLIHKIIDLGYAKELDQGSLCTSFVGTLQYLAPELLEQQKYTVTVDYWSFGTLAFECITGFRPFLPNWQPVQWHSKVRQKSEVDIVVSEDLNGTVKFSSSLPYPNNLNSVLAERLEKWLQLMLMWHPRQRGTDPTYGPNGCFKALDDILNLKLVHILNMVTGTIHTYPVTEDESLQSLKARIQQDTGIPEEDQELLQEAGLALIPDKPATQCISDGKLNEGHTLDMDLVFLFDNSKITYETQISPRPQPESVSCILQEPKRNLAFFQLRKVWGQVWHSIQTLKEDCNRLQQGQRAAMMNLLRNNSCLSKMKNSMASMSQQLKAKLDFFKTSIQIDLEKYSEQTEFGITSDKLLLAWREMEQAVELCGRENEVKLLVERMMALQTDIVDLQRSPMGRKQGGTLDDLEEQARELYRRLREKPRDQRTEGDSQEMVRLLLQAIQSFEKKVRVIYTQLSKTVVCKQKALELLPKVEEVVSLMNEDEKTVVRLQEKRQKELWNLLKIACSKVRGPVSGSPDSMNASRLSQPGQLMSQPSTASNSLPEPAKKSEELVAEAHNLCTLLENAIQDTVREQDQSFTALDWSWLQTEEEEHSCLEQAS

The target in the next assay is T3, ALK4(h) (human, UniProt P36896 150-505, limits assumed).
T3 sequence (looked up): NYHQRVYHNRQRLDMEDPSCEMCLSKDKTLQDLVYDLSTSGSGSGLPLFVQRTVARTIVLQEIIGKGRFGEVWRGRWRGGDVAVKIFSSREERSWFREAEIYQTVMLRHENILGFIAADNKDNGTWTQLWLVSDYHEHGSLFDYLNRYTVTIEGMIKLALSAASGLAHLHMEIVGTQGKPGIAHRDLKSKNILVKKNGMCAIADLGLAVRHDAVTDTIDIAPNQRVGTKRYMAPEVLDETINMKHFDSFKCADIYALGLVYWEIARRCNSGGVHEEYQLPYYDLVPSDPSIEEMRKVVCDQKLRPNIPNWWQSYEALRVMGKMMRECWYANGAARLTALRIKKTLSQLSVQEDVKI

In a further assay the target is T4, DRAK1(h) (human, UniProt Q9UEE5 1-414, limits assumed).
T4 sequence (looked up): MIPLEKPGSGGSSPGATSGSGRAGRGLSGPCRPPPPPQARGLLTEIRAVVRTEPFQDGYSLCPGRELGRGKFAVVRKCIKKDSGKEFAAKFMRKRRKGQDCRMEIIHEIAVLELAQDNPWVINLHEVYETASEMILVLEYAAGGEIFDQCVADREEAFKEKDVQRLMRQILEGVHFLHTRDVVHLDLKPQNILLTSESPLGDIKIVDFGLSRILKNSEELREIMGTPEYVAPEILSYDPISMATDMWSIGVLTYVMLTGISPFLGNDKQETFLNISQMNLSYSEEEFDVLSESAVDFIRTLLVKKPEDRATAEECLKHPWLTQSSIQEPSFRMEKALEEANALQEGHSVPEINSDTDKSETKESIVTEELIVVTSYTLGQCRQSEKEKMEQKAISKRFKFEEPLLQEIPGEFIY

A further assay concerns the target T5, Flt1(h) (human, UniProt P17948 781-1338, limits assumed).
T5 sequence (looked up): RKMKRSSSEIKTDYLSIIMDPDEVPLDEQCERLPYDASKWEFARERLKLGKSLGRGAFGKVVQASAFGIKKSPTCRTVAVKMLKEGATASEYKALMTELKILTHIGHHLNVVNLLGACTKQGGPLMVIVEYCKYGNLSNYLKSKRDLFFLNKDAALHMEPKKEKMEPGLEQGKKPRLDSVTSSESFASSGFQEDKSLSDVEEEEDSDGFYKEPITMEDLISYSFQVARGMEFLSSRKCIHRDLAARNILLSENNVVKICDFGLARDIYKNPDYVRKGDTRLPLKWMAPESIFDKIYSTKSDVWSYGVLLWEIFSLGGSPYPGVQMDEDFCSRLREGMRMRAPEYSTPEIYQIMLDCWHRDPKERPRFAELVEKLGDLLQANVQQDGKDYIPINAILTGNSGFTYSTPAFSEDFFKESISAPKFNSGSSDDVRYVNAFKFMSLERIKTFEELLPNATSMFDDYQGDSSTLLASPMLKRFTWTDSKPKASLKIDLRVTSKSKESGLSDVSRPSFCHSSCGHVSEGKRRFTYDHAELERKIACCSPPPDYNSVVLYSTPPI

Chain of FGFR3(h) (P22607 397-806 limits assumed): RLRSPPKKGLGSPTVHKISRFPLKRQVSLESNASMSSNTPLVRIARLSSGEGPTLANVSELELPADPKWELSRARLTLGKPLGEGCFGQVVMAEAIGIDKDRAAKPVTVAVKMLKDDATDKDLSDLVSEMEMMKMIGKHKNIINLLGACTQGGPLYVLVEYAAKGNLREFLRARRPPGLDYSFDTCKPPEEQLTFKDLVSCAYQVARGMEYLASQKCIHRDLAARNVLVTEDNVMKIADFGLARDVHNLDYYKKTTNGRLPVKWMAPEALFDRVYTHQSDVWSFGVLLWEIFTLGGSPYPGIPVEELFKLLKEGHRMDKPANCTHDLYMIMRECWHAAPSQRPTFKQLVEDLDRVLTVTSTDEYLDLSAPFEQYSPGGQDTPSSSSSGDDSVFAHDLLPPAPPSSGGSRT
Chain of FGFR1(V561M)(h) (P11362 456-765 V561M limits assumed): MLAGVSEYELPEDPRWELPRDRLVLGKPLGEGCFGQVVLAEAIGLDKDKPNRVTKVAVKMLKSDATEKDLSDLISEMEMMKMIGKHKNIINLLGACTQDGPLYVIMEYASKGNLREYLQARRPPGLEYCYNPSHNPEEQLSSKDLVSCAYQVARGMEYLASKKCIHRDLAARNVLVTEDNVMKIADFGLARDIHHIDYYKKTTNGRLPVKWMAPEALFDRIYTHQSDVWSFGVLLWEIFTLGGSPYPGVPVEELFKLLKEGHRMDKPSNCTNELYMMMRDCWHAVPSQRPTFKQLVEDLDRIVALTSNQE
Chain of LOK(h) (O94804 1-348 limits assumed): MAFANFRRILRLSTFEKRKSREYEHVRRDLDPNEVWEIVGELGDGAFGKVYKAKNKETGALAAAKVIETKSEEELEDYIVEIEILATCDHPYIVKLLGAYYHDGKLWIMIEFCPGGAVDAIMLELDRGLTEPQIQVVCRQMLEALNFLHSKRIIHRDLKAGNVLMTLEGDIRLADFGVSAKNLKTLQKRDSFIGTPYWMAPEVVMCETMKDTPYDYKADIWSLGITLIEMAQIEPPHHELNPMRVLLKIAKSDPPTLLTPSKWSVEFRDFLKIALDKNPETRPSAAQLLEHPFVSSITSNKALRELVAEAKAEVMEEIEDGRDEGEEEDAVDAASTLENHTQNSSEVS
Chain of WNK3(h) (Q9BYP7 1-434 limits assumed): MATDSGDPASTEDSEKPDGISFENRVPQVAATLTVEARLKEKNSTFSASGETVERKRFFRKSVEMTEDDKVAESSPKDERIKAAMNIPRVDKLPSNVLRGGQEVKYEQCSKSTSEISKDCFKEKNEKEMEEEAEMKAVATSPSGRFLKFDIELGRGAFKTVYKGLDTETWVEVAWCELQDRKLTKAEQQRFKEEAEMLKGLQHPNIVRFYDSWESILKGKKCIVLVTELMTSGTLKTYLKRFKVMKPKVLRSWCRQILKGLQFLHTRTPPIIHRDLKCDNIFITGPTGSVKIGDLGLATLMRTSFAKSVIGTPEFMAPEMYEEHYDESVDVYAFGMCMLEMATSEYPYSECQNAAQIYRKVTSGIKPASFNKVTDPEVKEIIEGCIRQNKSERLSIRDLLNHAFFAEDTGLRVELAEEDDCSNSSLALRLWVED
Chain of PTK5(h) (P42685 whole entry): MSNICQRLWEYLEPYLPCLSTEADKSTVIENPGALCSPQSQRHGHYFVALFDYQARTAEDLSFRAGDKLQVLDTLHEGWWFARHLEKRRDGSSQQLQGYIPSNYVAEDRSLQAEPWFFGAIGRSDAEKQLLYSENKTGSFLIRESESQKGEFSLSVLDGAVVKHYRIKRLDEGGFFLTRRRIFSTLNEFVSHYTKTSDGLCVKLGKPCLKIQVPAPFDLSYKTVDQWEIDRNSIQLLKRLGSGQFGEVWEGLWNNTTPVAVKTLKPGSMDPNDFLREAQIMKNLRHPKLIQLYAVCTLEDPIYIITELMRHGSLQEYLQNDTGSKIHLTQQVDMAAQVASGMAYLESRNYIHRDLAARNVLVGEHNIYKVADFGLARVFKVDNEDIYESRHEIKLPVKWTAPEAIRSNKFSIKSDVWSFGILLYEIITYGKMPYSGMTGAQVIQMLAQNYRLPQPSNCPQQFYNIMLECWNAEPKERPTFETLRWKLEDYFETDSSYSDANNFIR
Chain of Yes(h) (P07947 whole entry): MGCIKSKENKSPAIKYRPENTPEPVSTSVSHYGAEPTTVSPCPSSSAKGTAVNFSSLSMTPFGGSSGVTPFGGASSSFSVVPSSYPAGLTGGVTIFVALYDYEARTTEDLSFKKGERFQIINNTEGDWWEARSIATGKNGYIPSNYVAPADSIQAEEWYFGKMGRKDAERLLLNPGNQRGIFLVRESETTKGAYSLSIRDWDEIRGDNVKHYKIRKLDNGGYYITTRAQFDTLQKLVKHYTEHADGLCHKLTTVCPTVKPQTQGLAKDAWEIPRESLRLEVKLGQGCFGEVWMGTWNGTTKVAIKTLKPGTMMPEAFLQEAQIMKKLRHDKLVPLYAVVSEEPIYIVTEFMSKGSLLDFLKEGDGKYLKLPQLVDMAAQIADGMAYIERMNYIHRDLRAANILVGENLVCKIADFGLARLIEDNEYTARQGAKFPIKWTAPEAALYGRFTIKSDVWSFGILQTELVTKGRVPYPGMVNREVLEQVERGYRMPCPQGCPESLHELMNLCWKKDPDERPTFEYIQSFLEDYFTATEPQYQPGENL
Chain of Fyn(h) (P06241 whole entry): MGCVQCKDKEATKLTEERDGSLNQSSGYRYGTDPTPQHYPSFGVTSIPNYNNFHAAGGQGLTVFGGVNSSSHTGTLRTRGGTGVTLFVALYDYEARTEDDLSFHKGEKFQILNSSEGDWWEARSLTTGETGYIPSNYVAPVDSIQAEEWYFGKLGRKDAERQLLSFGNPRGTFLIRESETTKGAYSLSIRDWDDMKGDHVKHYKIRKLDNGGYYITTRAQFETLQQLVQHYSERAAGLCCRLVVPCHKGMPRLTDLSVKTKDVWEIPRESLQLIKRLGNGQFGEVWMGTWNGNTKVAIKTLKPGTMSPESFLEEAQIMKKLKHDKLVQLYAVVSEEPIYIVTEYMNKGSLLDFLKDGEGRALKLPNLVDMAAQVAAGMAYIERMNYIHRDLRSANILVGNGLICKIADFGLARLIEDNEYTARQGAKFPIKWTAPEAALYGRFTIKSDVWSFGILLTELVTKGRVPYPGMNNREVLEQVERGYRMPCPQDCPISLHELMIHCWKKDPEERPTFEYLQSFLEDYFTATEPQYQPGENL

As to FAKLAARLYRKALARQLGVAA [MMI-0300], the “% activity, 100 µM” value with FGFR3(h) turned out to be 102%; in the assay with Yes(h), 67%; in the assay with FGFR1(V561M)(h), 74%; in the assay with Haspin(h), 48%; with IKKβ(h) it was 84%; with WNK3(h) it was 77%. The “% activity, 100 µM” value with ALK4(h) was 140%; in the assay with LOK(h), 37%; with DRAK1(h), 14%; in the assay with Flt1(h), 69%; with PTK5(h), 132%; with Fyn(h), 74%.
As for KAFAKLAARLYRKALARQLGVAA [MMI-0400], the “% activity, 100 µM” value was 0% with FGFR3(h); 14% in the assay with Yes(h); 74% with FGFR1(V561M)(h); 36% with Haspin(h); 84% with IKKβ(h); 74% in the assay with WNK3(h). Besides, the “% activity, 100 µM” value came to 130% in the assay with ALK4(h); 18% with LOK(h); 14% in the assay with DRAK1(h); 48% with Flt1(h); 129% with PTK5(h); 54% in the assay with Fyn(h).

The record behind these values is patent US20140072613A1 (published 2014).
